Measurements as given in patent US20240398963A1 (priority 2021, published 2024).

Type: physicochemical
Conditions: 10 mM PBS buffer (pH=7.4), 37° C., 100 rpm shaker; free drug by HPLC, average release per day
Experimental: The drug release and stability experiments were run using the test compounds. About 2.5±1.0 mg/mL (with regard to conjugate) solution of each test compound was prepared with 10 mM PBS buffer (pH=7.4) in Millipore Amicon® Ultra-0.5 ml 30 k Ultrafiltration centrifuge tube. The solution was kept swelling for 1 h at room temperature and then placed in a shaker at 100 rpm, 37° C. for continuous experiment. At the same time point of each day, samples were centrifuged at 10000 rpm for 1 h. The aliquot was transferred to HPLC vial for analysis. An 0.4 mL of 10 mM PBS buffer was added into the centrifuge tube and continue the experiment.
For the HPLC analysis at each time point, the peak areas of all relevant peaks from the chromatograms were retrieved and the concentration of free drug was calculated. Average release of free drug was calculated based on the sum of free drug and numbers of experiment days. The computing equation is as below.
The sample degradation rate was calculated based on the concentration and degree of substitution (NMR) for conjugated drug with regard to the initial starting point of the experiment (at t=0). The computing equation is as below.

| Substance | Release rate [%/day] |
| --- | --- |
| Conjugate of HA and 2-((8S,9R,10S,11S,13S,14S,16S,17R)-9-fluoro-11,17-dihydroxy-10,13,16-trimethyl-3-oxo-6,7,8,9,10,11,12,13,14,15,16,17-dodecahydro-3H-cyclopenta[a]phenanthren-17-yl)-2-oxoethyl 4-aminobutanoate [Example 46] | 2.95 |
| Conjugate of HA and 2-((8S,9R,10S,11S,13S,14S,16S,17R)-9-fluoro-11,17-dihydroxy-10,13,16-trimethyl-3-oxo-6,7,8,9,10,11,12,13,14,15,16,17-dodecahydro-3H-cyclopenta[a]phenanthren-17-yl)-2-oxoethyl 6-aminohexanoate [Example 84] | 3.73 |
| Conjugate of HA and 2-((8S,9S,10R,11S,13S,14S,17R)-11,17-dihydroxy-10,13-dimethyl-3-oxo-2,3,6,7,8,9,10,11,12,13,14,15,16,17-tetradecahydro-1H-cyclopenta[a]phenanthren-17-yl)-2-oxoethyl 4-aminobutanoate [Example 38] | 1.71 |
| Conjugate of HA and 2-((8S,9S,10R,11S,13S,14S,17R)-11,17-dihydroxy-10,13-dimethyl-3-oxo-2,3,6,7,8,9,10,11,12,13,14,15,16,17-tetradecahydro-1H-cyclopenta[a]phenanthren-17-yl)-2-oxoethyl 5-aminopentanoate [Example 76] | 2.66 |
| Conjugate of HA and 2-((8S,9S,10R,11S,13S,14S,17R)-11,17-dihydroxy-10,13-dimethyl-3-oxo-2,3,6,7,8,9,10,11,12,13,14,15,16,17-tetradecahydro-1H-cyclopenta[a]phenanthren-17-yl)-2-oxoethyl 6-aminohexanoate [Example 93] | 7.67 |
| Conjugate of HA and 2-((8S,9S,10R,11S,13S,14S,17R)-11,17-dihydroxy-10,13-dimethyl-3-oxo-6,7,8,9,10,11,12,13,14,15,16,17-dodecahydro-3H-cyclopenta[a]phenanthren-17-yl)-2-oxoethyl 4-aminobutanoate [Example 36] | 2.89 |
| Conjugate of HA and 2-((8S,9S,10R,11S,13S,14S,17R)-11,17-dihydroxy-10,13-dimethyl-3-oxo-6,7,8,9,10,11,12,13,14,15,16,17-dodecahydro-3H-cyclopenta[a]phenanthren-17-yl)-2-oxoethyl 6-aminohexanoate [Example 81] | 1.71 |
| Conjugate of HA and 2-((8S,9S,10R,11S,13S,14S,17R)-11,17-dihydroxy-10,13-dimethyl-3-oxo-6,7,8,9,10,11,12,13,14,15,16,17-dodecahydro-3H-cyclopenta[a]phenanthren-17-yl)-2-oxoethyl-5-aminopentanoate [Example 75] | 4.80 |
| Conjugate of HA and 2-((8S,9S,10R,13S,14S,17R)-17-hydroxy-10,13-dimethyl-3,11-dioxo-2,3,6,7,8,9,10,11,12,13,14,15,16,17-tetradecahydro-1H-cyclopenta[a]phenanthren-17-yl)-2-oxoethyl 4-aminobutanoate [Example 40] | 2.49 |
| Conjugate of HA and 2-((8S,9S,10R,13S,14S,17R)-17-hydroxy-10,13-dimethyl-3,11-dioxo-2,3,6,7,8,9,10,11,12,13,14,15,16,17-tetradecahydro-1H-cyclopenta[a]phenanthren-17-yl)-2-oxoethyl 5-aminopentanoate [Example 77] | 4.81 |
| Conjugate of HA and 2-((8S,9S,10R,13S,14S,17R)-17-hydroxy-10,13-dimethyl-3,11-dioxo-2,3,6,7,8,9,10,11,12,13,14,15,16,17-tetradecahydro-1H-cyclopenta[a]phenanthren-17-yl)-2-oxoethyl 6-aminohexanoate [Example 94] | 2.85 |
| Conjugate of HA and 2-((8S,9S,10R,13S,14S,17R)-17-hydroxy-10,13-dimethyl-3,11-dioxo-6,7,8,9,10,11,12,13,14,15,16,17-dodecahydro-3H-cyclopenta[a]phenanthren-17-yl)-2-oxoethyl 5-aminopentanoate [Example 74] | 4.06 |
| Conjugate of HA and 2-((8S,9S,10R,13S,14S,17R)-17-hydroxy-10,13-dimethyl-3,11-dioxo-6,7,8,9,10,11,12,13,14,15,16,17-dodecahydro-3H-cyclopenta[a]phenanthren-17-yl)-2-oxoethyl 6-aminohexanoate [Example 92] | 8.21 |
| Conjugate of HA and 4-aminobutyl (2-((6S,8S,9S,10R,11S,13S,14S,17R)-11,17-dihydroxy-6,10,13-trimethyl-3-oxo-6,7,8,9,10,11,12,13,14,15,16,17-dodecahydro-3H-cyclopenta[a]phenanthren-17-yl)-2-oxoethyl) carbonate [Example 68] | 8.02 |
| Conjugate of HA and 4-aminobutyl (2-((8S,9R,10S,11S,13S,14S,16R,17R)-9-fluoro-11,17-dihydroxy-10,13,16-trimethyl-3-oxo-6,7,8,9,10,11,12,13,14,15,16,17-dodecahydro-3H-cyclopenta[a]phenanthren-17-yl)-2-oxoethyl) carbonate [Example 70] | 3.49 |
| Conjugate of HA and 4-aminobutyl (2-((8S,9R,10S,11S,13S,14S,16S,17R)-9-fluoro-11,17-dihydroxy-10,13,16-trimethyl-3-oxo-6,7,8,9,10,11,12,13,14,15,16,17-dodecahydro-3H-cyclopenta[a]phenanthren-17-yl)-2-oxoethyl) carbonate [Example 72] | 7.86 |
| Conjugate of HA and 4-aminobutyl (2-((8S,9S,10R,11S,13S,14S,17R)-11,17-dihydroxy-10,13-dimethyl-3-oxo-2,3,6,7,8,9,10,11,12,13,14,15,16,17-tetradecahydro-1H-cyclopenta[a]phenanthren-17-yl)-2-oxoethyl) carbonate [Example 64] | 7.61 |
| Conjugate of HA and 4-aminobutyl (2-((8S,9S,10R,11S,13S,14S,17R)-11,17-dihydroxy-10,13-dimethyl-3-oxo-6,7,8,9,10,11,12,13,14,15,16,17-dodecahydro-3H-cyclopenta[a]phenanthren-17-yl)-2-oxoethyl) carbonate [Example 62] | 0.14 |
| Conjugate of HA and 4-aminobutyl (2-((8S,9S,10R,13S,14S,17R)-17-hydroxy-10,13-dimethyl-3,11-dioxo-2,3,6,7,8,9,10,11,12,13,14,15,16,17-tetradecahydro-1H-cyclopenta[a]phenanthren-17-yl)-2-oxoethyl) carbonate [Example 66] | 11.18 |
| Conjugate of HA and 4-aminobutyl (2-((8S,9S,10R,13S,14S,17R)-17-hydroxy-10,13-dimethyl-3,11-dioxo-6,7,8,9,10,11,12,13,14,15,16,17-dodecahydro-3H-cyclopenta[a]phenanthren-17-yl)-2-oxoethyl) carbonate [Example 60] | 15.04 |
| Conjugate of HA and 5-aminopentyl (2-((6S,8S,9S,10R,11S,13S,14S,17R)-11,17-dihydroxy-6,10,13-trimethyl-3-oxo-6,7,8,9,10,11,12,13,14,15,16,17-dodecahydro-3H-cyclopenta[a]phenanthren-17-yl)-2-oxoethyl) carbonate [Example 86] | 6.93 |
| Conjugate of HA and 5-aminopentyl (2-((8S,9R,10S,11S,13S,14S,16R,17R)-9-fluoro-11,17-dihydroxy-10,13,16-trimethyl-3-oxo-6,7,8,9,10,11,12,13,14,15,16,17-dodecahydro-3H-cyclopenta[a]phenanthren-17-yl)-2-oxoethyl) carbonate [Example 87] | 6.96 |
| Conjugate of HA and 5-aminopentyl (2-((8S,9S,10R,11S,13S,14S,17R)-11,17-dihydroxy-10,13-dimethyl-3-oxo-2,3,6,7,8,9,10,11,12,13,14,15,16,17-tetradecahydro-1H-cyclopenta[a]phenanthren-17-yl)-2-oxoethyl) carbonate [Example 90] | 4.56 |
| Conjugate of HA and 5-aminopentyl (2-((8S,9S,10R,11S,13S,14S,17R)-11,17-dihydroxy-10,13-dimethyl-3-oxo-6,7,8,9,10,11,12,13,14,15,16,17-dodecahydro-3H-cyclopenta[a]phenanthren-17-yl)-2-oxoethyl) carbonate [Example 85] | 7.65 |
| Conjugate of HA and 5-aminopentyl (2-((8S,9S,10R,13S,14S,17R)-17-hydroxy-10,13-dimethyl-3,11-dioxo-2,3,6,7,8,9,10,11,12,13,14,15,16,17-tetradecahydro-1H-cyclopenta[a]phenanthren-17-yl)-2-oxoethyl) carbonate [Example 91] | 11.66 |
| Conjugate of HA and 5-aminopentyl (2-((8S,9S,10R,13S,14S,17R)-17-hydroxy-10,13-dimethyl-3,11-dioxo-6,7,8,9,10,11,12,13,14,15,16,17-dodecahydro-3H-cyclopenta[a]phenanthren-17-yl)-2-oxoethyl) carbonate [Example 89] | 8.12 |
